Measurements reported in paper doi:10.1101/411223 (bioRxiv, 2018).

How the values were obtained:
Kap114p [1] = molecular target: T1, Kap114p (S. cerevisiae, UniProt P53067 1-1004); assay: ITC
T1 sequence (looked up): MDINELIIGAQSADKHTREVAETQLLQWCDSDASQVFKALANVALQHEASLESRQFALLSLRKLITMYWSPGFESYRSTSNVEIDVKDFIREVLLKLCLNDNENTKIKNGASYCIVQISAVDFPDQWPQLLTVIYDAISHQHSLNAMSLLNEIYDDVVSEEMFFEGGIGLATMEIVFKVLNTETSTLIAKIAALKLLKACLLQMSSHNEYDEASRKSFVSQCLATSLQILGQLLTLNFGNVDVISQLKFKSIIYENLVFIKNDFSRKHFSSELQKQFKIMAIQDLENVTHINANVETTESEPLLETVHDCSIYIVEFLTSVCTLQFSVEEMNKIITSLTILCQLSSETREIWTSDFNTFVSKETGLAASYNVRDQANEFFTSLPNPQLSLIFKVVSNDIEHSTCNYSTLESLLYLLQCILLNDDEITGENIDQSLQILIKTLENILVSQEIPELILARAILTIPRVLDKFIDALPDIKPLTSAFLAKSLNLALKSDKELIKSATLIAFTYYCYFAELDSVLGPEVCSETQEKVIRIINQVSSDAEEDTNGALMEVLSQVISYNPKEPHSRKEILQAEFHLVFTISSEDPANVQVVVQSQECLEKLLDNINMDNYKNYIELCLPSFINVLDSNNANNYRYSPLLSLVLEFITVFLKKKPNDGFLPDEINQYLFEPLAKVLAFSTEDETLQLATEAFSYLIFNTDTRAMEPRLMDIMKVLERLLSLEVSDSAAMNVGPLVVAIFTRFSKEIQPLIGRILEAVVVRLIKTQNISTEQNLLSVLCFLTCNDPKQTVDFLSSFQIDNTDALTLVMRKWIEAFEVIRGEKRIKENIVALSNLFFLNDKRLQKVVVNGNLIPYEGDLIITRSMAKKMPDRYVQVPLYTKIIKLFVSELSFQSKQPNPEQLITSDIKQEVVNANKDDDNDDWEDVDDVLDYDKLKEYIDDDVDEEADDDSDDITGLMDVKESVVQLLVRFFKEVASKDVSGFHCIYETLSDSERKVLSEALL

Kap114p (Δ899-956) = molecular target: T2, Kap114p (Δ899-956) (S. cerevisiae, UniProt P53067 1-1004, Δ899-956); assay: ITC
T2 sequence (looked up): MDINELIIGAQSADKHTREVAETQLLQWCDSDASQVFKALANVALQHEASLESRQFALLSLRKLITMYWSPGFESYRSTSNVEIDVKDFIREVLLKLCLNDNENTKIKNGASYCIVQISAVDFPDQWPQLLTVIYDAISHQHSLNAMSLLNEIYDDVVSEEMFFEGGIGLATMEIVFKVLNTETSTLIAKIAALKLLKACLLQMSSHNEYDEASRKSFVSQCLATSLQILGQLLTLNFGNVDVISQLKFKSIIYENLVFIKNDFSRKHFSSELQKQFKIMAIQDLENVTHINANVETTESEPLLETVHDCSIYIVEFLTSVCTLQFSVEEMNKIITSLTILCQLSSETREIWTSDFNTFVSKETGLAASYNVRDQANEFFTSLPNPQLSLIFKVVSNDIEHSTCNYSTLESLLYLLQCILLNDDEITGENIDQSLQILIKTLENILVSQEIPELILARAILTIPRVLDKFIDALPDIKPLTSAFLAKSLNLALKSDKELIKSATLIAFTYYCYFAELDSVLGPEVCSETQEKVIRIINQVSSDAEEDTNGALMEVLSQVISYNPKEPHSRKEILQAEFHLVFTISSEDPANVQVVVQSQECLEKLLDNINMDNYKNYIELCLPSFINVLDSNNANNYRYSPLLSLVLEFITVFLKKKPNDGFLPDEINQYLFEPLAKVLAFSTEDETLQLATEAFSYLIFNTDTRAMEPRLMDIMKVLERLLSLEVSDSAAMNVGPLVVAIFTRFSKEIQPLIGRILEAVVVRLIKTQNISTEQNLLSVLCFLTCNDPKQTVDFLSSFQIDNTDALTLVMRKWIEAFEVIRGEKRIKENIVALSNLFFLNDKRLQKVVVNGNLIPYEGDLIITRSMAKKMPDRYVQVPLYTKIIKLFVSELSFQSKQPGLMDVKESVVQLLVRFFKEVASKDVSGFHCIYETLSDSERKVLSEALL

AUC = molecular target: the molecule itself; assay: AUC
Kap114p [2] = molecular target: T1, Kap114p; assay: AUC

B1: yTBP (61-240) (domain or fragment, S. cerevisiae, UniProt P13393 61-240, looked up)
chain: SGIVPTLQNIVATVTLGCRLDLKTVALHARNAEYNPKRFAAVIMRIREPKTTALIFASGKMVVTGAKSEDDSKLASRKYARIIQKIGFAAKFTDFKIQNIVGSCDVKFPIRLEGLAFSHGTFSSYEPELFPGLIYRMVKPKIVLLIFVSGKIVLTGAKQREEIYQAFEAIYPVLSEFRKM
- Kd (Kap114p [1]): 6 nM
- binding result (Kap114p (Δ899-956)): binds
- stoichiometry N (AUC): 2
- stoichiometry N (Kap114p [2]): 1
